From US20110152199A1 (ONCOTHERAPY SCIENCE, published 2011)

Molecular target: T1, HLA-A2 (HLA-A*0201) on cells (human, UniProt P04439 25-302 at identity 0.94))
T1 MHC heavy: not shown
Experiment: cell-based or functional assay

B1: CDCA1 351-359 (No. 4) peptide (peptide)
peptide: KLATAQFKI
- IFN-γ production by healthy donor 1-derived CTLs against T2 cells pulsed with the peptide at various concentrations (E/T ratio 5): ≥ 0.2 µg/mL
